Experimental data from patent US20040038290A1 (ROCKEFELLER UNIVERSITY, published 2004).
Blank lines part the entries; values can stand above or below the molecule they belong to.

What was measured:
[1] = target: E. coli Pol III (Escherichia coli) (UniProt P10443); test: cell-based or functional assay
[2] = target: human DNA polymerase delta (human) (UniProt P28340); test: cell-based or functional assay
[3] = target: T1, Aquifex aeolicus α subunit of DNA polymerase III (Aquifex aeolicus, UniProt O67125 1-1161); test: complex constitution from pure subunits, column chromatography
T1 construct: Recombinant, expressed in E. coli from pETAadnaE (pET24); also called A.ae. α; Aquifex α
T1 sequence: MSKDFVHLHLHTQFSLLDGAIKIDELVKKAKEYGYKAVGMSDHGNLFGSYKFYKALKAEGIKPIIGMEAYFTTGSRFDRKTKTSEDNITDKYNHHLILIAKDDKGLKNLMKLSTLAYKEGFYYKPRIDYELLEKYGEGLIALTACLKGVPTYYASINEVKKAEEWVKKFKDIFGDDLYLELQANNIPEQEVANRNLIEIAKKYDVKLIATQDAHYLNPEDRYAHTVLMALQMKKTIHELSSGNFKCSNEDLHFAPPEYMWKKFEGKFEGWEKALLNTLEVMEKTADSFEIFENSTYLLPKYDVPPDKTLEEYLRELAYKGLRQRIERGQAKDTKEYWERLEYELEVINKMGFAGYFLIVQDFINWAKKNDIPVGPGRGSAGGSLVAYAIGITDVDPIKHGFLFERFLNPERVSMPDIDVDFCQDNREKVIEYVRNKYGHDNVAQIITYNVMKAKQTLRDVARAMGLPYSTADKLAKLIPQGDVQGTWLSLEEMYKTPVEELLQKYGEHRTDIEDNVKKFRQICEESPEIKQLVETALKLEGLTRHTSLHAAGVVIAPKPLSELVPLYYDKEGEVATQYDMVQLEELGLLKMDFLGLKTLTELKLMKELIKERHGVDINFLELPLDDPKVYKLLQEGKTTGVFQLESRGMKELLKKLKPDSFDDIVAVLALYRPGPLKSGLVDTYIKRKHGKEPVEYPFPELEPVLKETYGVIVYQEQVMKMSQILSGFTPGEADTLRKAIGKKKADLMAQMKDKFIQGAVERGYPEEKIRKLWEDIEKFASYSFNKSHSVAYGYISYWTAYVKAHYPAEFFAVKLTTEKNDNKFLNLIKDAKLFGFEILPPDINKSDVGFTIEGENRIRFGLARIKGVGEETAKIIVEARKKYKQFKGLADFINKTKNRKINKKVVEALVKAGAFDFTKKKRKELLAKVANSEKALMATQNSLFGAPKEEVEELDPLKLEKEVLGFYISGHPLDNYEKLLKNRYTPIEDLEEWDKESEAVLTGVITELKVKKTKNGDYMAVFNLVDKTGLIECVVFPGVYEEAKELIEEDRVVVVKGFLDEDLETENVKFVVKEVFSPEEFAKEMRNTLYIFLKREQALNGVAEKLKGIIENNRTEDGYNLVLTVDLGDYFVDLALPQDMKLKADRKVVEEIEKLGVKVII

[4] = target: Thermus thermophilus DNA polymerase III purified from T.th. cell extracts; test: cell-based or functional assay

Chain of human DNA polymerase delta (human) (P28340 whole entry, stated change not applied): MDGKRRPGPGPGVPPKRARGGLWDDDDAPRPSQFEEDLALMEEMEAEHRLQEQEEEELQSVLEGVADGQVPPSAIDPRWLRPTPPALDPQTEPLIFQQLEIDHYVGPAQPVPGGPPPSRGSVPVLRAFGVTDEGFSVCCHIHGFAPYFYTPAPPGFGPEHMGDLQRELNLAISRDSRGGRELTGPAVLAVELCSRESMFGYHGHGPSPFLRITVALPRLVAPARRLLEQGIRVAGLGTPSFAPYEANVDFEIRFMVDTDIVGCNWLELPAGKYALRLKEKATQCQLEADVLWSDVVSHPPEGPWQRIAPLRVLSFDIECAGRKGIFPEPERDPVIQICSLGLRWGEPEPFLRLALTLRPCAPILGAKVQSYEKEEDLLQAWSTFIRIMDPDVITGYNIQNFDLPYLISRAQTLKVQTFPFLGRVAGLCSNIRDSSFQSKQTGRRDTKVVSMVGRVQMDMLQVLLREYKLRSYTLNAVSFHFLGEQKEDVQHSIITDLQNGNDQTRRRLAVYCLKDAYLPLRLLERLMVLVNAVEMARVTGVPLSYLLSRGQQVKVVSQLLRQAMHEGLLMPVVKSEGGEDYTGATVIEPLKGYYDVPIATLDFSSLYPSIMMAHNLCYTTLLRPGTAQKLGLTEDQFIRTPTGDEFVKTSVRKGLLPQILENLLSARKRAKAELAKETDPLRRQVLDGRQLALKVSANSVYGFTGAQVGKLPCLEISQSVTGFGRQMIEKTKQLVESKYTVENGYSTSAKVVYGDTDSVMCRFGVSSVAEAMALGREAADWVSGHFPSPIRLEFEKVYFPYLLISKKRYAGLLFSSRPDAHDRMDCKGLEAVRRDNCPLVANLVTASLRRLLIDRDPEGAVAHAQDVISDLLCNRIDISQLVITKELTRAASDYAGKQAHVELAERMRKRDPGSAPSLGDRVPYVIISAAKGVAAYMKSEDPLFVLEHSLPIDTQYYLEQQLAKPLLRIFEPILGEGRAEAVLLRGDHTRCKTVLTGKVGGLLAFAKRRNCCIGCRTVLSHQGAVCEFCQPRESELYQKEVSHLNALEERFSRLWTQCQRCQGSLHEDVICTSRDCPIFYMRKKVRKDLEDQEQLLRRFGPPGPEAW
Chain of E. coli Pol III (Escherichia coli) (P10443 whole entry): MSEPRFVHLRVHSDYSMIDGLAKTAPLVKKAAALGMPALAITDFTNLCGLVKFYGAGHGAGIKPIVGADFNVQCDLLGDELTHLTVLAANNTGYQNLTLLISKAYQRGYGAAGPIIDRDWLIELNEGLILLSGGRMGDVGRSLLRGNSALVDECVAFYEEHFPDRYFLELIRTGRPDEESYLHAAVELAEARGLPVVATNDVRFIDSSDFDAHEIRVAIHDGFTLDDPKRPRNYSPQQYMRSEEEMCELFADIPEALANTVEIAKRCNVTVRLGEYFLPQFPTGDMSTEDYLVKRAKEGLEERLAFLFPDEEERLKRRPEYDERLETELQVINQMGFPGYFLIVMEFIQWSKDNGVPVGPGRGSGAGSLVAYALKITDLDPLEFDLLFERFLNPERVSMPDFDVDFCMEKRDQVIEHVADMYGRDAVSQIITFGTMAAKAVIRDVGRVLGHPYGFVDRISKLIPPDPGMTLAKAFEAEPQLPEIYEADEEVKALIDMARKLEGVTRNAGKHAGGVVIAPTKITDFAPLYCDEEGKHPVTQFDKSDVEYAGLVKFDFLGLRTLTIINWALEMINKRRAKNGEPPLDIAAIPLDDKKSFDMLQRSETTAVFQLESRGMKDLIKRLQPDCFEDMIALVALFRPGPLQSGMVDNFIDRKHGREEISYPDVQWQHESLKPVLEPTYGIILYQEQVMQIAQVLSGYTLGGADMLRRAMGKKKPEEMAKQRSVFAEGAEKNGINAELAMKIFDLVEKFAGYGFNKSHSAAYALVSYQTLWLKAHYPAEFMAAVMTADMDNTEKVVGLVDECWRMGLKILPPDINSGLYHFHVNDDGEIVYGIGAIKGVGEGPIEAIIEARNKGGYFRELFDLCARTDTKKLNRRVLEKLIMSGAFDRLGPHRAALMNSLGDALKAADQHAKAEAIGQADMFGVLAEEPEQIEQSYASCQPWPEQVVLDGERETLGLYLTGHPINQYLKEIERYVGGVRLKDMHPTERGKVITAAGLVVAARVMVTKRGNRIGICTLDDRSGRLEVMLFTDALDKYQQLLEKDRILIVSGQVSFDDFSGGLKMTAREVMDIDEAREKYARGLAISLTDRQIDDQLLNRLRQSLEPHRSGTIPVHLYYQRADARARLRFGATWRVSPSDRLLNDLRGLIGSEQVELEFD

Molecule: E. coli β subunit (from UniProt P0A988 1-366)
pmol synthesis on oligodT-primed linear polydA, E. coli Pol III with β (lane 2) [1]: 35 pmol
pmol synthesis on oligodT-primed linear polydA, E. coli Pol III without β (lane 1, baseline) [1]: 6 pmol

pmol synthesis on oligodT-primed linear polydA, human Polδ with PCNA (lane 4) [2]: 24 pmol
pmol synthesis on oligodT-primed linear polydA, human Polδ without PCNA (lane 3, baseline) [2]: 2 pmol
Molecule: human PCNA (from UniProt P12004 1-261)

binding result [3]: binds
B1: Aquifex aeolicus tau subunit of DNA polymerase III (other)
chain: MNYVPFARKYRPKFFREVIGQEAPVRILKNAIKNDRVAHAYLFAGPRGVGKTTIARILAKALNCKNPSKGEPCGECENCREIDRGVFPDLIEMDAASNRGIDDVRALKEAVNYKPIKGKYKVYIIDEAHMLTKEAFNALLKTLEEPPPRTVFVLCTTEYDKILPTILSRCQRIIFSKVRKEKVIEYLKKICEKEGIECEEGALEVLAHASEGCMRDAASLLDQASVYGEGRVTKEVVENFLGILSQESVRSFLKLLLNSEVDEAIKFLRELSEKGYNLTKFWEMLEEEVRNAILVKSLKNPESVVQNWQDYEDFKDYPLEALLYVENLINRGKVEARTREPLRAFELAVIKSLIVKDIIPVSQLGSVVKETKKEEKKVEVKEEPKVKEEKPKEQEEDRFQKVLNAVDGKILKRILEGAKREERDGKIVLKIEASYLRTMKKEFDSLKETFPFLEFEPVEDKKKPQKSSGTRLF
notes: Recombinant, expressed in E. coli from pETAadnaX (pET24); also called A.ae. tau

pmol synthesis on oligodT-primed linear polydA, T.th. Pol III with T.th. β (lane 6) [4]: 1.9 pmol
pmol synthesis on oligodT-primed linear polydA, T.th. Pol III without T.th. β (lane 5, baseline) [4]: 0.6 pmol
B2: Thermus thermophilus β subunit, recombinant (protein)
chain: MNITVPKKLLSDQLSLLERIVPSRSANPLYTYLGLYAEEGALILFGTNGEVDLEVRLPAEAQSLPRVLVPAQPFFQLVRSLPGDLVALGLASEPGQGGQLELSSGRFRTRLSLAPAEGYPELLVPEGEDKGAFPLRTRMPSGELVKALTHVRYAASNEEYRAIFRGVQLEFSPQGFRAVASDGYRLALYDLPLPQGFQAKAVVPARSVDEMVRVLKGADGAEAVLALGEGVLALALEGGSGVRMALRLMEGEFPDYQRVIPQEFALKVQVEGEALREAVRRVSVLSDRQNHRVDLLLEEGRILLSAEGDYGKGQEEVPAQVEGPDMAVAYNARYLLEALAPVGDRAHLGISGPTSPSLIWGDGEGYRAVVVPLRVZ
